EC50 data for one substance are collected here from patent publication US20230212554A1.

In assay [1] the target is NPB1 (influenza B virus B/Houston/B720/2004) (UniProt O36433). The experiment in a line: ELISA on recombinant NP.
In assay [2] the target is NP of B/Brisbane/60/2008(fluB) (influenza B virus B/Brisbane/60/2008). The experiment in a line: ELISA on virus-infected fixed MDCK cells.

Regarding ab47876 (antibody), the EC50 in assay [1] amounted to 0.13 nM; in assay [2], 2.06 nM.
